Test results published in US20080311122A1 (AstraZeneca / MedImmune, published 2008).
One block for each binder: values may come before it.

How the values were obtained:
[1] = target: T1, native nuclear HMG1 prepared from 293H cells by freeze thaw (human, UniProt P09429 1-215); experiment: sandwich ELISA: antibody captured on anti-human IgG Fc, native HMGB1 0.7 ug/ml in solution, mouse anti-HMGB1 and anti-mouse IgG-HRP, OD 450
T1 construct: unpurified cell lysate supernatant
T1 sequence (looked up): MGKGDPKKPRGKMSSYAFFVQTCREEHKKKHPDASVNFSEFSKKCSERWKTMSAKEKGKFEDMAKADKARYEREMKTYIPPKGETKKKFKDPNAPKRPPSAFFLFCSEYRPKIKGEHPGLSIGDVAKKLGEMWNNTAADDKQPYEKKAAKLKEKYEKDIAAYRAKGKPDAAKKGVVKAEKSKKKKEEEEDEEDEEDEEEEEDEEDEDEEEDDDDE
Experimental: Sandwich ELISA (soluble HMG1): Immunoplates (EIA/RIA plate, High binding, Costar) were coated with anti human IgG Fc at 10 μg/ml in PBS (pH 7.2) and incubated at 4° C. overnight. The coating reagent was removed and the plates were rinsed briefly with PBS. The plates were then blocked with 4% milk for 1 hour at 37° C. and rinsed with PBS. The anti-HMG1 antibodies were diluted in 4% milk. For serial dilutions, the antibodies were used at a starting concentration of 20 μg/ml. The diluted anti-HMG1 antibodies were then added into plate and incubated for 1 hr at 37° C. The plate was then washed 10 times with PBST (PBS/0.1% tween 20) and incubate with antigen (HMGB1, 2 μg/ml; or 0.7 μg/ml for native HMGB1) in 4% milk and incubated at 37° C. for 1 h. The plate was then wash 10 times and incubated with mouse anti-HMGB1, 1 μg/ml in 4% milk at 37° C. for 1 h. The plate was washed 10 times and incubated with anti-mouse IgG-HRP at 1:1000 at 37° C. for 1 h. The plate was then washed and developed. HRP activity was detected with Sureblue HRP substrate (KPL). Plates were read at 450 nm using a Kinetic Microplate Reader (Molecular Devices).

[2] = target: T2, HMGB1 in joint lysates of adjuvant induced arthritis (AIA) rats (rat, UniProt P63159 2-215); experiment: sandwich ELISA and immunoprecipitation with Western blot
T2 construct: also called HMGB1 from arthritis joints; AA joint lysates
T2 sequence (looked up): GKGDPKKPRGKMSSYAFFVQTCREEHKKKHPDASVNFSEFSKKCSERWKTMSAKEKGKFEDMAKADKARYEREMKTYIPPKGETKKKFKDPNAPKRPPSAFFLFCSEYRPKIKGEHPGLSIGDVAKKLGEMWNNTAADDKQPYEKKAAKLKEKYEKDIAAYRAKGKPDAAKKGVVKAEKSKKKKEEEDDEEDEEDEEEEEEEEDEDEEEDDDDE
Experimental: HMGB1 Detection from Biological Samples: For detection of the HMGB1 from AA joint homogenates and peritonitis sera, sandwich ELISA was performed. Goat anti-human Fc (Pierce) 14 μg/ml in PBS was coated on Immunlon IV microtiter plate over night at 4° C. After washing and blocking with 5% milk 1 hr at room temperature, G4 or S6 in blocking buffer (10 μg/ml) were added to each well of the blocked plate. The plate was washed 1 hour later and 25 μl of AIA homogenates containing 0.8 μg/ml of HMGB1 or peritonitis sera containing 7 μg/ml of HMGB1 in 0.5 M NaCl/blocking buffer were added to the wells at two fold serial dilutions. The unbound materials were removed by washing one hr after incubation. The bound HMGB1 was detected by a mouse anti-HMGB1 antibody at 2 μg/ml followed by an anti-mouse antibody conjugated with horseradish peroxidase. Mouse peritonitis sera was obtained by heart puncture 7 days after infection with heat killed staphylococcus aureus. Joint lysate was prepared from the whole paw of AIA rats as described in Example 6 below. Human sepsis sera were purchased from a commercial source.
Immunoprecipitation and Western Blot: Anti-HMGB1 mAbs (G4 and S6) and isotype control were first biotinylated using EZ-Link Sulfo-NHS-LC-Biotin as instructed by the manufacturer (Pierce). After labeling, the mAb was tested for binding to HMGB1 by ELISA with unlabeled mAbs as controls. […]

- EC50 (read off the curve) [1]: ~0.8 µg/mL
B1: anti-HMG1 antibody S2 (antibody, V domains shown)
VH: EVQLLESGGGLVQPGGSLRLSCAASGFTFSGYMMVWVRQAPGKGLEWVSRISPSGGQTGYADSVKGRFTISRDNSKNTLYLQMNSLRAEDTAVYYCAREEGGSYGAFDIWGQGTMVTVSS
VL: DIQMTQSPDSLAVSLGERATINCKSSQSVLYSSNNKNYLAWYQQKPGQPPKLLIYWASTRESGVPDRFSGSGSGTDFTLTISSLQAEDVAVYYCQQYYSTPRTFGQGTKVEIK
notes: also called ATCC PTA-6142

B2: anti-HMG1 antibody G4 (antibody, V domains shown)
VH: EVQLLESGGGLVQPGGSLRLSCAASGFTFSWYDMTWVRQAPGKGLEWVSSISPSGGYTKYADSVKGRFTISRDNSKNTLYLQMNSLRAEDTAVYYCTTEFYDYLDVWGKGTTVTVSS
VL: DIQMTQSPGTLSLSPGEGATLSCRASQSVSSTYLAWYQQKPGQAPRLLIYEASKRATGTPARFSGSGSGTDFTLSISSLEPEDFAVYYCQHRHNWPPQWTFGQGTKVEVK
notes: also called ATCC PTA-6258
- binding result [2]: binds
